Key:
[1] = biological target: mesothelin on the cell membrane of the pancreatic cancer cell line AsPC-1 (mesothelin-overexpressing cell line) (human) (UniProt Q13421); assay: flow cytometry, phage on AsPC-1 cells, anti-M13-FITC
[2] = biological target: mesothelin on the cell membrane of the pancreatic cancer cell line AsPC-1 (mesothelin-overexpressing cell line) (human) (UniProt Q13421); assay: flow cytometry, phage on AsPC-1 cells against K562 control cells, anti-M13-FITC

B1: MSLN3 phage clone (scFv displayed on phage, KBIO human synthetic scFv phage display library KscFv-I) (scFv, V domains shown, not shown: small tags and cut ends; large carriers)
VH: EVQLVESGGGLVQPGGSLRLSCAASGFTFSDYAMSWVRQAPGKGLEWVSAISSSGGTTYYADSVKGRFTISRDNSKNTLYLQMNSLRAEDTAVYYCAKEEEGEWREYFDVWGQGTLVTVSS
VL: DIQMTQSPSSLSASVGDRVTITCRASQSISSYLNWYQQKPGKAPKLLIYATSTLQSGVPSRFSGSGSGTDFTLTISSLQPEDFATYYCQQSYTFPYTFGQGTKVEIK
relative peak shift value [1]: > 3% | relative peak shift value [2]: 23.8%
